The values that follow come from patent publication US20120301493A1 (UNIVERSIDADE DE SANTIAGO DE COMPOSTELA, published 2012).

This test deals with muNS-Mi, region 448-635 of avian reovirus S1133 muNS protein (avian Orthoreovirus (avian reovirus …)). The experiment in a line: co-expression with muNS-Mi in CEF cells, anti-HA immunofluorescence.

B1: muNS (1-448)-HA (other)
chain: MASTKWGDKPMSVSMSHDGSSIRSAASQFLSGPLFHSTPIPPQRKTVLLKFMIGDELVTVQGALAPFDEYWYDNQPLLAQAVEMLASADRLRQFEHYEKFLLKKGHQITEIMNRLRLFFTDVLKVKMEADALPALAQYLMVGTLEAVSTADSPDACVPVTSKILAKQQTIAKSPGRLDEEEYNVIRSRFLTHEVFDLTSDLPGVQPFMDMYYATVPRADSTGWCVYRRKGLLIHAPDEQFSDLTIFSTRLTASRELQLVAGDVAVACFDLMDVSDIAPSHHASVQEERTLGTSRYSNVTANDHPLVFFSPSALRWAIDHACTDSLVSTRNIRVCVGIDPLVTRWTRDGVQEAAILMDDKLPSAGRARMALRTLLLARRSPMTSFLLGALKQSGGQLMEHYRCDAANRYGSPTVPVSHSPPCSKCPELKEQITKLSSSPLPKIDSNVGP
notes: also called N-terminus domain (muNS(1-448)); N-terminus region
As to B1, the binding result is recorded as “no binding”.

B2: muNS (1-380)-HA (other)
chain: MASTKWGDKPMSVSMSHDGSSIRSAASQFLSGPLFHSTPIPPQRKTVLLKFMIGDELVTVQGALAPFDEYWYDNQPLLAQAVEMLASADRLRQFEHYEKFLLKKGHQITEIMNRLRLFFTDVLKVKMEADALPALAQYLMVGTLEAVSTADSPDACVPVTSKILAKQQTIAKSPGRLDEEEYNVIRSRFLTHEVFDLTSDLPGVQPFMDMYYATVPRADSTGWCVYRRKGLLIHAPDEQFSDLTIFSTRLTASRELQLVAGDVAVACFDLMDVSDIAPSHHASVQEERTLGTSRYSNVTANDHPLVFFSPSALRWAIDHACTDSLVSTRNIRVCVGIDPLVTRWTRDGVQEAAILMDDKLPSAGRARMALRTLLLARRSP
As to B2, the binding result is recorded as “no binding”.

B3: muNS (1-154)-HA (other)
chain: MASTKWGDKPMSVSMSHDGSSIRSAASQFLSGPLFHSTPIPPQRKTVLLKFMIGDELVTVQGALAPFDEYWYDNQPLLAQAVEMLASADRLRQFEHYEKFLLKKGHQITEIMNRLRLFFTDVLKVKMEADALPALAQYLMVGTLEAVSTADSPD
For B3, the binding result was “no binding”.
